Data as given in patent US20200172617A1.

Tests used:
[1] = target: LAG-3 (as used in the Biacore assay) (UniProt P18627); assay: Biacore (SPR); format not described
[2] = target: LAG-3 (in the in vitro cell-based assays) (UniProt P18627); assay: in vitro cell-based assays; format not described
[3] = target: soluble LAG-3 (human) (UniProt P18627); assay: population PK/PD target-mediated drug disposition model (quasi-equilibrium) fitted to antibody and total soluble LAG-3 concentrations in patient serum; model estimate

B1: LAG525 (antibody, INN chains, looked up, V domains shown)
VH: QVQLVQSGAEVKKPGASVKVSCKASGFTLTNYGMNWVRQARGQRLEWIGWINTDTGEPTYADDFKGRFVFSLDTSVSTAYLQISSLKAEDTAVYYCARNPPYYYGTNNAEAMDYWGQGTTVTVSS
VL: DIQMTQSPSSLSASVGDRVTITCSSSQDISNYLNWYLQKPGQSPQLLIYYTSTLHLGVPSRFSGSGSGTEFTLTISSLQPDDFATYYCQQYYNLPWTFGQGTKVEIK
**Q.** How did the Kd [1] turn out when B1 was run?
**A.** 0.1 nM

**Q.** And the Kd [2]?
**A.** 1.9 to 2.3 nM

**Q.** What about the Kd [3] of the same binder?
**A.** 1.5 nM
